Reference: patent publication US20130295102A1 (Novartis, published 2013)
Changes are numbered by the printed parent chain. Each block holds one binder with its values, some of them ahead of it.

How the values were obtained:
Human Factor P [1] = target: T1, Human Factor P (human, UniProt P27918 29-469); assay: SET, solution equilibrium titration
T1 construct: Bought protein (Complement Technology cat# A139) in SET and Biacore; Factor P of human serum in the functional assays; also called FP; human FP
T1 sequence (P27918 29-469 limits assumed): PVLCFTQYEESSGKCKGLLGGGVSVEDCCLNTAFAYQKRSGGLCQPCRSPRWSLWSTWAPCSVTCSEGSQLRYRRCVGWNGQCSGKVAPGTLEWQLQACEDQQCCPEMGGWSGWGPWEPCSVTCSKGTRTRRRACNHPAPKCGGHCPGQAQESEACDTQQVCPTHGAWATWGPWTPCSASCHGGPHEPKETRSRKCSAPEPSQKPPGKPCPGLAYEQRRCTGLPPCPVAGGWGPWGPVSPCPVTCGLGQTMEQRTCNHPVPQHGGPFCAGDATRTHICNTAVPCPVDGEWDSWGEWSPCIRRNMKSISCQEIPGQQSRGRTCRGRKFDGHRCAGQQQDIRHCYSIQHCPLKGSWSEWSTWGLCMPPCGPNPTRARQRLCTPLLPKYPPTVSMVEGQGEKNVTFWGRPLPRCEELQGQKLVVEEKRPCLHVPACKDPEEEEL
Protocol: (§1) In SET, a constant amount of antibody is incubated with different concentrations of antigen until equilibrium is reached. The concentration of free antibody in the equilibrated solution is determined by applying the solution on an antigen coated MSD™ plate (Meso Scale Discovery™) followed by incubation with an ECL-labeled secondary antibody and measurement of signal intensity. At low antigen concentrations, a strong signal is achieved (high concentration of free antibody which binds to the antigen on the plate) whereas for high antigen concentration, the antibody is completely antigen-captured, resulting in a low signal. If a sufficient number of antigen concentrations in a matching range are available, the titration curve allows for a reasonable determination of the affinity, using the appropriate fit model. […] The constant concentration of antibody applied in the assay should be in the range of, or below, the KD (Table 4).
(§2) Human Factor P (Complement Technology cat#: A139) and Cyno Factor P purified from cyno serum (protocol adapted from Nakano, et al., (1986) J Immunol Methods 90:77-83) were coated on standard binding MSD plates (Meso-Scale Discovery, 384-well: MSD cat#: L21XA, 96-well: MSD cat#: L15XA) at 0.2-0.3 μg/ml in 25 μl PBS and incubated overnight at 4° C. Factor P inhibitors were diluted to a fixed concentration (1 pM or 10 pM) in incubation buffer (PBS with 2% BSA (Sigma cat#: A4503) and 1% Tween20 and 1% Triton-X (Sigma cat#: 234729)), and added to a serial dilution of Factor P (human or cyno) in incubation buffer. Samples were allowed to reach equilibrium by incubation at RT overnight. Plates were washed 3× in wash buffer (PBS with 0.05% Tween20), and blocked with 100 μl incubation buffer at RT for 2 hrs. Plates were washed 3× in wash buffer. Sample containing Factor P inhibitors and Factor P titration were added to the plate (25 μl), and incubated at RT for 15 min. Plates were washed 3× in wash buffer. 25 μl detection antibody was added (Anti-Human (Goat) Sulfo-TAG, 1:1000 in incubation buffer, MSD cat#: R32AJ-1), and incubated at RT for 60 min. Plates were washed 3× in wash buffer, and 50 μl of 1×MSD Read buffer T was added (with surfactant, MSD cat#: R92TC-1). Plates were read on a MSD Spector Imager 6000.

Cynomolgus Factor P [2] = target: T2, Cynomolgus Factor P (cynomolgus); assay: SET, solution equilibrium titration
T2 construct: Purified from cynomolgus serum for SET/Biacore; Factor P of cynomolgus serum in the functional assays; also called Cyno Factor P; cyno FP
Protocol: as §1, §2

Human Factor P [3] = target: T1, Human Factor P; assay: Biacore SPR, captured Factor P
Cynomolgus Factor P [4] = target: T2, Cynomolgus Factor P; assay: Biacore SPR, captured Factor P
Human Factor P [5] = target: T1, Human Factor P; assay: cell-based or functional assay
Cynomolgus Factor P [6] = target: T2, Cynomolgus Factor P; assay: cell-based or functional assay

Kd (Human Factor P [1]): 0.02 nM
Kd (Cynomolgus Factor P [2]): 0.19 nM
Kd (Human Factor P [3]): 0.035 nM
koff (Human Factor P [3]): 4e-05 s⁻¹
kon (Human Factor P [3]): 1e+06 M⁻¹ s⁻¹
Kd (Cynomolgus Factor P [4]): 0.16 nM
koff (Cynomolgus Factor P [4]): 0.0002 s⁻¹
kon (Cynomolgus Factor P [4]): 1e+06 M⁻¹ s⁻¹
Inhibition of C3a generation, 20% human serum (Human Factor P [5]): 42.2 nM
Zymosan-C3b IC50 (nM), 10% serum (Human Factor P [5]): 1.54 nM
Zymosan-C3b IC50 (nM), 10% serum (Cynomolgus Factor P [6]): 6.59 nM
B1: NVS964 (Fab, V domains shown)
VH: EVQLVQSGAEVKKPGASVKVSCKASGYTFTSHYMHWVRQAPGQGLEWMGKINADLGDTNYAQKFQGRVTMTRDTSISTAYMELSSLRSEDTAVYYCARDGIEHGGHYYWGYLFDIWGQGTLVTVSS
VL: SYELTQPPSVSVAPGQTARISCSGDSIREYYVHWYQQKPGQAPVLVIGDDTNRPSGIPERFSGSNSGNTATLTISGTQAEDEADYYCAAWDFSPAIVFGGGTKLTVLG
notes: Disulfide-bridged Fab; also called Fab NVS964
Hemolytic assay IC50 (nM), 10% serum (Human Factor P [5]): 9.26 nM
Hemolytic assay IC50 (nM), 10% serum (Cynomolgus Factor P [6]): 13.4 nM

Kd (Human Factor P [1]): 0.04 nM
Kd (Cynomolgus Factor P [2]): 0.28 nM
Kd (Human Factor P [3]): 0.06 nM
koff (Human Factor P [3]): 9e-05 s⁻¹
kon (Human Factor P [3]): 1e+06 M⁻¹ s⁻¹
Kd (Cynomolgus Factor P [4]): 0.315 nM
koff (Cynomolgus Factor P [4]): 0.0006 s⁻¹
kon (Cynomolgus Factor P [4]): 1e+06 M⁻¹ s⁻¹
Inhibition of C3a generation, 20% human serum (Human Factor P [5]): 43.5 nM
Zymosan-C3b IC50 (nM), 10% serum (Human Factor P [5]): 2.53 nM
Zymosan-C3b IC50 (nM), 10% serum (Cynomolgus Factor P [6]): 5.92 nM
B2: NVS967 (Fab, V domains shown)
VH: B1 VH with K50N, A53P, D54V, L55D, D57G, N59E
VL: B1 VL with E3V, Q16K, G76R, T77A, E80G
notes: Disulfide-bridged Fab; also called Fab NVS967
Hemolytic assay IC50 (nM), 10% serum (Human Factor P [5]): 9.61 nM
Hemolytic assay IC50 (nM), 10% serum (Cynomolgus Factor P [6]): 14 nM
